Data on 1 protein can be found in patent publication US20230241247.

The target in data set [1] is hamster IgG (IgG in pooled hamster plasma).
The target of data set [2] is human IgG (total IgG in human serum / pooled human plasma).
Data set [3] deals with rhesus IgG (total IgG in rhesus macaque plasma).

B1: immunoglobulin G (IgG)-degrading enzyme from Streptococcus pyogenes (IdeS; Promega) (protein)
chain: DSFSANQEIRYSEVTPYHVTSVWTKGVTPPANFTQGEDVFHAPYVANQGWYDITKTFNGKDDLLCGAATAGNMLHWWFDQNKDQIKRYLEEHPEKQKINFNGEQMFDVKEAIDTKNHQLDSKLFEYFKEKAFPYLSTKHLGVFPDHVIDMFINGYRLSLTNHGPTPVKEGSKDPRGGIFDAVFTRGDQSKLLTSRHDFKEKNLKEISDLIKKELTEGKALGLSHTYANVRINHVINLWGADFDSNGNLKAIYVTDSDSNASIGMKKYFVGVNSAGKVAISAKEIKEDNIGAQVLGLFTLSTGQDSWNQTN
B1: the “cleavage of IgG in serum/plasma in vitro (non-reducing SDS-PAGE, Coomassie stain)” value in data set [1] was “IdeS is a highly efficient and specific protease of human IgG, rhesus IgG and hamster IgG”; in data set [2] it was “IdeS is a highly efficient and specific protease of human IgG, rhesus IgG and hamster IgG”; in data set [3], “IdeS is a highly efficient and specific protease of human IgG, rhesus IgG and hamster IgG”.
